Laboratory results as given in US12209122.
Positions count from the first letter of the chain named. In names and notes the source's numbering stands.

B1: humanized single-chain diabody of clone 16-22-H05 (other)
chain: MDIQMTQSPSSLSASVGDRVTIKCQASQSIFSGLAWYQQKPGKAPKLLIYGASKLASGVPSRFSGSGSGTEFTLTISGLQPADFATYYCQSYYYSSSSSDGSYAFGGGTKLTVLGGGGGSEVQLVESGGGLVQPGGSLRLSCKASGIDFNNYGIGWVRQAPGKGLEWITYIYPGFAITNFANSVKGRFTISSDNSKNTVYLQMNSLRAEDTAVYYCARDPVYATSSGYFDLWGQGTLVTVSSGGGGSGGGGSGGGGSGGGGSDIQMTQSPSSLSASVGDRVTIKCQASQSIFSGLAWYQQKPGKAPKLLIYGASKLASGVPSRFSGSGSGTEFTLTISGLQPADFATYYCQSYYYSSSSSDGSYAFGGGTKLTVLGGGGGSEVQLVESGGGLVQPGGSLRLSCKASGIDFNNYGIGWVRQAPGKGLEWITYIYPGFAITNFANSVKGRFTISSDNSKNTVYLQMNSLRAEDTAVYYCARDPVYATSSGYFDLWGQGTLVTVSS
notes: Single-chain diabody VLA-L1-VHB-L2-VLB-L3-VHA, bivalent for TNFα; L1 and L3 are G4S, L2 is (G4S)4; also called 16-22-H5-scDb; scDb
B2: recombinant human TNFβ (Peprotech, Cat. No. 300-01B) (ligand, UniProt P01374 35-205, looked up)
chain: LPGVGLTPSAAQTARQHPKMHLAHSTLKPAAHLIGDPSKQNSLLWRANTDRAFLQDGFSLSNNSLLVPTSGIYFVYSQVVFSGKAYSPKATSSPLYLAHEVQLFSSQYPFHVPLLSSQKMVYPGLQEPWLHSMYHGAAFQLTQGDQLSTHTDGIPHLVLSPSTVFFGAFAL
B3: humanized scFv 16-22-H05-sc02 (structural graft, STR) (scFv)
scFv: MDIQMTQSPSSLSASVGDRVTIKCQASQSIFSGLAWYQQKPGKAPKLLIYGASKLASGVPSRFSGSGSGTEFTLTISGLQPADFATYYCQSYYYSSSSSDGSYAFGGGTKLTVLGGGGGSGGGGSGGGGSGGGGSEVQLVESGGGLVQPGGSLRLSCKASGIDFNNYGIGWVRQAPGKGLEWITYIYPGFAITNFANSVKGRFTISSDNSKNTVYLQMNSLRAEDTAVYYCARDPVYATSSGYFDLWGQGTLVTVSS
notes: also called 16-22-H5-sc02; 16-22-H04-sc02 [sic]
B4: 16-22-H5-scFv (scFv format of Examples 3 to 7) (scFv)
chain: B3 scFv
B5: humanized scFv 16-22-H05-sc04 (CDR grafted light chain, structural grafted heavy chain, CDR/STR) (scFv)
scFv: B3 scFv with K23T
notes: also called 16-22-05-sc04
B6: humanized IgG of clone 16-22-H05 (antibody, V domains shown)
VH: EVQLVESGGGLVQPGGSLRLSCKASGIDFNNYGIGWVRQAPGKGLEWITYIYPGFAITNFANSVKGRFTISSDNSKNTVYLQMNSLRAEDTAVYYCARDPVYATSSGYFDLWGQGTLVTVSS
VL: DIQMTQSPSSLSASVGDRVTIKCQASQSIFSGLAWYQQKPGKAPKLLIYGASKLASGVPSRFSGSGSGTEFTLTISGLQPADFATYYCQSYYYSSSSSDGSYAFGGGTKLTVLG
notes: Transiently expressed in CHO S cells and purified on Protein A; also called 16-22-H5-IgG

Legend:
[1] = target: T1, recombinant human TNFα (Peprotech, Cat. No. 300-01) (human, UniProt P01375 77-233); test: SPR as in Example 2 under 2.1.1
T1 construct: also called TNFαtrimer; biotinylated TNFα

[2] = target: T1, recombinant human TNFα (Peprotech, Cat. …); test: cell-based or functional assay
[3] = target: B5; test: competition ELISA, coated scFv, biotinylated TNFα, unlabeled TNFβ against unlabeled TNFα
Method: (§1) For this purpose, the scFvs were coated on a 96-well Maxisorp ELISA plate at a concentration of 1 μg/ml. […] To control precision of the response, the dose-response curves were analyzed in duplicate.

[4] = target: B3; test: as above
Method: as §1

[5] = target: B5; test: competition ELISA, coated scFv, biotinylated TNFα 75 ng/ml, unlabeled TNFβ varied
Method: as §1

[6] = target: B3; test: as above
Method: as §1

[7] = target: T1, recombinant human TNFα (Peprotech, Cat. …); test: inhibition ELISA, blocking of TNFα binding to coated TNFRI-Fc
Excerpt: (§2) For the first inhibition ELISA, the extracellular domain of TNFRI fused to the Fc region of human IgG (R&D Systems, Cat. No. 372-RI) was coated on a 96-well Maxisorp ELISA at a concentration of […]. […] All subsequent steps were identical for both assays.

[8] = target: B2; test: competition ELISA, coated scFv, biotinylated TNFα, unlabeled TNFβ
Method: as §1

[9] = target: T1, recombinant human TNFα (Peprotech, Cat. …); test: SPR (MASS-1), TNFα immobilized, scFv 45 to 1.4 nM
Method: (§3) In a second step, for the best performing scFvs, Single Injection Cycle Kinetics (SiCK) were measured from a single injection cycle by simultaneously injecting six analyte samples at different concentrations into each of the eight parallel channels in the MASS-1 system. […] The apparent dissociation (k_d) and association (k_a) rate constants and the apparent dissociation equilibrium constant (K_D) were calculated with the MASS-1 analysis software (Analyzer, Sierra Sensors) using one-to-one Langmuir binding model and quality of the fits was monitored based on Chi^2, which is a measure for the quality of the curve fitting.

[10] = target: T2, Rhesus monkey TNFα (R&D Systems, Cat. No. 1070-RM-025/CF) (Rhesus monkey (Macaca mulatta), UniProt P48094 77-233); test: cell-based or functional assay
[11] = target: T3, recombinant Cynomolgus monkey TNFα (Sino Biological, Cat. No. 90018-CNAE) (Cynomolgus monkey (Macaca fascicularis), UniProt P79337 77-233); test: cell-based or functional assay
[12] = target: T1, recombinant human TNFα (Peprotech, Cat. …); test: cell-based or functional assay; remark: listed apart in the source
[13] = target: T1, recombinant human TNFα (Peprotech, Cat. …); test: inhibition ELISA, blocking of TNFα binding to coated TNFRI-Fc; reference infliximab
Excerpt: as §2

[14] = target: T3, recombinant Cynomolgus monkey TNFα …; test: SPR (MASS-1), cyno TNFα immobilized, scFv 45 to 1.4 nM
Method: as §3, with “fitting. The smaller the value for the Chi^2 the more accurate is the fitting to the one-to-one Langmuir binding model. For affinity screenings, results were deemed valid if the Chi^2 was below 10 for the concentration analyzed. In cases where several scFv concentrations were analyzed, results were deemed valid if the average Chi^2 over all the concentrations tested was below 10.” for “fitting.”

[15] = target: T1, recombinant human TNFα (Peprotech, Cat. …); test: inhibition ELISA, blocking of TNFα binding to coated TNFRII-Fc
Excerpt: as §2

[16] = target: T1, recombinant human TNFα (Peprotech, Cat. …); test: inhibition ELISA, blocking of TNFα binding to coated TNFRII-Fc; reference infliximab
[17] = target: T2, Rhesus monkey TNFα (R&D Systems, Cat. …); test: SPR (MASS-1), Rhesus TNFα immobilized, scFv 45 to 1.4 nM
Method: as §3, with “fitting. The smaller the value for the Chi^2 the more accurate is the fitting to the one-to-one Langmuir binding model. For affinity screenings, results were deemed valid if the Chi^2 was below 10 for the concentration analyzed. In cases where several scFv concentrations were analyzed, results were deemed valid if the average Chi^2 over all the concentrations tested was below 10.” for “fitting.”

[18] = target: T2, Rhesus monkey TNFα (R&D Systems, Cat. …); test: SPR, TNFα immobilized, scFv injected
Method: as §3, with “fitting. The smaller the value for the Chi^2 the more accurate is the fitting to the one-to-one Langmuir binding model. For affinity screenings, results were deemed valid if the Chi^2 was below 10 for the concentration analyzed. In cases where several scFv concentrations were analyzed, results were deemed valid if the average Chi^2 over all the concentrations tested was below 10.” for “fitting.”

[19] = target: T3, recombinant Cynomolgus monkey TNFα …; test: SPR, TNFα immobilized, scFv injected
Method: as §3, with “fitting. The smaller the value for the Chi^2 the more accurate is the fitting to the one-to-one Langmuir binding model. For affinity screenings, results were deemed valid if the Chi^2 was below 10 for the concentration analyzed. In cases where several scFv concentrations were analyzed, results were deemed valid if the average Chi^2 over all the concentrations tested was below 10.” for “fitting.”

T1 sequence (P01375 77-233 limits assumed): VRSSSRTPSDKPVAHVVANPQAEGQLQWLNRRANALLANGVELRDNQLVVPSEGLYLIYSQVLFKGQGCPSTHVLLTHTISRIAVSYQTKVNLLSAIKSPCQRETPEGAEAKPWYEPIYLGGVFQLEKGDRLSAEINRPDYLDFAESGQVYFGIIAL
T3 sequence (P79337 77-233 limits assumed): as the sequence (P01375 77-233 limits assumed) above, with L37V, R44T, T72N, R138L counted along it
T2 sequence (P48094 77-233 limits assumed): as the sequence (P01375 77-233 limits assumed) above, with R44T, T72N, R138L counted along it

B1 showed a Kd [1] of 21.5 pM, a koff [1] of 2.02e-05 s⁻¹ and a kon [1] of 940000 M⁻¹ s⁻¹. The “Potency IC50 (nM), L929 assay” value [2] was 0.01 nM.

B2 was tested, and the “Target selectivity, rel. IC50 of TNFβ vs TNFα” value [3] was > 10000 fold, the “Target selectivity, rel. IC50 of TNFβ vs TNFα” value [4] was > 10000 fold and the IC50 [5] was > 1250 µg/mL. The IC50 [6] was > 1250 µg/mL.

B3 was tested, and the IC50 [7] was 0.0139 µg/mL, the binding result [8] was “no binding (tested: 1250 µg/ml)” and the Kd [9] was 45 pM. The koff [9] was 4.3e-05 s⁻¹, the kon [9] was 960000 M⁻¹ s⁻¹ and the “Species-specificity IC50 [ng/ml], L929 assay, Rhesus TNFα” value [10] was 3 ng/mL. The “Species-specificity IC50 [ng/ml], L929 assay, cyno TNFα” value [11] was 2.9 ng/mL, the “Potency in L929 assay, rel. IC50 (IC50 infliximab / IC50 scFv, ng/ml)” value [12] was 13.1 fold and the “Potency in L929 assay, rel. IC90 (IC90 infliximab / IC90 scFv, ng/ml)” value [12] was 12.6 fold. The “Species-specificity IC50 [ng/ml], L929 assay, human TNFα” value [12] was 0.6 ng/mL, the “rel. IC50 (IC50 infliximab / IC50 scFv, ng/mL)” value [13] was 3.5 fold and the “rel. IC90 (IC90 infliximab / IC90 scFv, ng/mL)” value [13] was 2.4 fold. For the same binder, the Kd [14] was 200 pM, the koff [14] was 9.6e-05 s⁻¹ and the kon [14] was 490000 M⁻¹ s⁻¹. For the same binder, the IC50 [15] was 0.02 µg/mL, the “rel. IC50 (IC50 infliximab / IC50 scFv, ng/mL)” value [16] was 5.7 fold and the “rel. IC90 (IC90 infliximab / IC90 scFv, ng/mL)” value [16] was 3.3 fold. The Kd [17] was 230 pM, the koff [17] was 0.00015 s⁻¹ and the kon [17] was 670000 M⁻¹ s⁻¹. The “fold difference in affinity against human TNFα” value [18] was ~5 fold and the “fold difference in affinity against human TNFα” value [19] was ~5 fold.

Work on B4 yielded a Kd [1] of 37.9 pM, a koff [1] of 3.38e-05 s⁻¹ and a kon [1] of 893000 M⁻¹ s⁻¹. For the same binder, the “Potency IC50 (nM), L929 assay” value [2] was 0.03 nM.

For B5, the IC50 [7] was 0.0177 µg/mL, the binding result [8] was “no binding (tested: 1250 µg/ml)” and the Kd [9] was 110 pM. The koff [9] was 7.1e-05 s⁻¹, the kon [9] was 680000 M⁻¹ s⁻¹ and the “Species-specificity IC50 [ng/ml], L929 assay, Rhesus TNFα” value [10] was 2.9 ng/mL. The “Species-specificity IC50 [ng/ml], L929 assay, cyno TNFα” value [11] was 3.5 ng/mL, the “Potency in L929 assay, rel. IC50 (IC50 infliximab / IC50 scFv, ng/ml)” value [12] was 14.6 fold and the “Potency in L929 assay, rel. IC90 (IC90 infliximab / IC90 scFv, ng/ml)” value [12] was 13.1 fold. For the same binder, the “Species-specificity IC50 [ng/ml], L929 assay, human TNFα” value [12] was 0.5 ng/mL, the “rel. IC50 (IC50 infliximab / IC50 scFv, ng/mL)” value [13] was 2.8 fold and the “rel. IC90 (IC90 infliximab / IC90 scFv, ng/mL)” value [13] was 2.1 fold. For the same binder, the IC50 [15] was 0.0326 µg/mL, the “rel. IC50 (IC50 infliximab / IC50 scFv, ng/mL)” value [16] was 3.5 fold and the “rel. IC90 (IC90 infliximab / IC90 scFv, ng/mL)” value [16] was 1.5 fold.

B6 was tested, and the Kd [1] was 41.7 pM, the koff [1] was 7.92e-05 s⁻¹ and the kon [1] was 1.9e+06 M⁻¹ s⁻¹. For the same binder, the “Potency IC50 (nM), L929 assay” value [2] was 0.02 nM.
